Target: T1, DLL4 antigen (Homo sapiens, UniProt Q9NR61)
T1 construct: DLL4 antigen protein comprises approximately amino acid 27 through amino acid 522; made in house; host or cells: insect cells (baculovirus)
Assay: ELISA of conditioned media for DLL4 antigen binding (humanized variants)
Conditions: conditioned media of cotransfected HEK293 cells
Procedure: The functionality of each candidate variant humanized heavy and light chain was tested by cotransfection into mammalian cells. Each of the five candidate humanized 21M18 heavy chains described above was cotransfected with the murine 21M18 light chain cDNA into HEK 293 cells, and conditioned media was then assayed for DLL4 antigen binding activity by ELISA. […] This variant—“21M18 H2”—contained, in additional to murine CDRs, murine residues at five framework positions, Kabat positions 20, 28, 38, 48, and 69 (FIG. 4). The 21M18 H2 humanized heavy chain was then cotransfected with each of the five candidate humanized light chains into HEK293 cells, and conditioned media was again assayed for antigen binding by ELISA.
Next, the isolated cysteine residue in CDR2H2 (SEQ ID NO: 2) was altered. Specifically, two heavy chain variants of H2 were synthesized with the cysteine residue at Kabat position 52a modified to a serine (variant H7; SEQ ID NO: 3) or a valine (variant H9; SEQ ID NO: 4) residue. These heavy chains were cotransfected into HEK293 cells with L2, and conditioned media was again assayed. […] Thus 21M18 heavy chain CDR2 comprises SEQ ID NO: 2, 3, or 4 in which the residue at Kabat position 52a comprises a cysteine, serine, or valine residue.

T1 sequence (Q9NR61 27-522): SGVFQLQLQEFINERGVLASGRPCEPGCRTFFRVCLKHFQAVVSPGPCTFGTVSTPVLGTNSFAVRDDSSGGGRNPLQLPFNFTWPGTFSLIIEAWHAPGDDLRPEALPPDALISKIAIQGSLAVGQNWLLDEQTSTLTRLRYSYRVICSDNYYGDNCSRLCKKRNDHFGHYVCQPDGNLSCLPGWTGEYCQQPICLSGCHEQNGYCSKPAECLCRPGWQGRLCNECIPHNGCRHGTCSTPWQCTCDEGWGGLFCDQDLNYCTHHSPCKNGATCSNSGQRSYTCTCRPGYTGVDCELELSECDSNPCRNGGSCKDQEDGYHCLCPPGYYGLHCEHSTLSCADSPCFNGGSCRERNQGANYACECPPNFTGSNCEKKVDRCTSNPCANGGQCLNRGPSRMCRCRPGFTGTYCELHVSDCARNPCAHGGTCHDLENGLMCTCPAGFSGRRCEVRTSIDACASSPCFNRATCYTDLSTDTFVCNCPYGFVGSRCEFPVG

B1: 21M18 H7L2: humanized 21M18, heavy chain Kabat position 52a serine (H7) with L2; ATCC deposit no. PTA-8425 (antibody, V domains shown)
VH: QVQLVQSGAEVKKPGASVKISCKASGYSFTAYYIHWVKQAPGQGLEWIGYISSYNGATNYNQKFKGRVTFTTDTSTSTAYMELRSLRSDDTAVYYCARDYDYDVGMDYWGQGTLVTVSS
VL: DIVMTQSPDSLAVSLGERATISCRASESVDNYGISFMKWFQQKPGQPPKLLIYAASNQGSGVPDRFSGSGSGTDFTLTISSLQAEDVAVYYCQQSKEVPWTFGGGTKVEIK
- antigen binding by ELISA: demonstrated specific antigen binding

B2: 21M18 H9L2: humanized 21M18, heavy chain Kabat position 52a valine (H9) with L2; ATCC deposit no. PTA-8427 (antibody, V domains shown)
VH: QVQLVQSGAEVKKPGASVKISCKASGYSFTAYYIHWVKQAPGQGLEWIGYISVYNGATNYNQKFKGRVTFTTDTSTSTAYMELRSLRSDDTAVYYCARDYDYDVGMDYWGQGTLVTVSS
VL: DIVMTQSPDSLAVSLGERATISCRASESVDNYGISFMKWFQQKPGQPPKLLIYAASNQGSGVPDRFSGSGSGTDFTLTISSLQAEDVAVYYCQQSKEVPWTFGGGTKVEIK
- antigen binding by ELISA: demonstrated specific antigen binding
